B1: HIV-1 Nef protein (natural protein)
chain: MGGKWSKSSVVGWPTVRERMRRAEPAADGVGAASRDLEKHGAITSSNTAATNAACAWLEAQEEEEVGFPVTPQVPLRPMTYKAAVDLSHFLKEKGGLEGLIHSQRRQDILDLWIYHTQGYFPDWQNYTPGPGVRYPLTFGWCYKLVPVEPDKVEEANKGENTSLLHPVSLHGMDDPEREVLEWRFDSRLAFHHVARELHPEYFKNC

Tests used:
Assay in all cases: SPR
Mortalin peptide #56 = Mortalin peptide #56 (UniProt P38646)
Mortalin peptide #62 = Mortalin peptide #62 (UniProt P38646)
[1] = target: T1, Recombinant Human GRP75/HSPA9B/Mortalin His Protein (human, UniProt P38646 47-679)
[2] = target: T2, Recombinant Human Vimentin Protein, CF (human, UniProt P08670 1-466)
[3] = target: T1, Recombinant Human GRP75/HSPA9B/Mortalin …; remark: listed apart in the source
[4] = target: T2, Recombinant Human Vimentin Protein, CF; remark: listed apart in the source

T2 sequence (P08670 whole entry): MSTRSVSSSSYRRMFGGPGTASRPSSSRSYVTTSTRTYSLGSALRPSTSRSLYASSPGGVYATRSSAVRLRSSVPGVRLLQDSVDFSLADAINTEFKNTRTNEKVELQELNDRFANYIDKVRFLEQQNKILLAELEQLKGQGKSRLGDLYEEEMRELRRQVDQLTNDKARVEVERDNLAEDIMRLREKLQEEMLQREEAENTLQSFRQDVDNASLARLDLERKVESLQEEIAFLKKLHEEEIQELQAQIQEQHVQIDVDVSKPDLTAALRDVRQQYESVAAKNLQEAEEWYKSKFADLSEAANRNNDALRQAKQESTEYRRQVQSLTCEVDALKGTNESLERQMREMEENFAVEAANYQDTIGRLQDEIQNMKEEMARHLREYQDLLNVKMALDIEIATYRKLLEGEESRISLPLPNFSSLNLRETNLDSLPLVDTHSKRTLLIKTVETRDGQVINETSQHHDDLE
T1 sequence (P38646 47-679): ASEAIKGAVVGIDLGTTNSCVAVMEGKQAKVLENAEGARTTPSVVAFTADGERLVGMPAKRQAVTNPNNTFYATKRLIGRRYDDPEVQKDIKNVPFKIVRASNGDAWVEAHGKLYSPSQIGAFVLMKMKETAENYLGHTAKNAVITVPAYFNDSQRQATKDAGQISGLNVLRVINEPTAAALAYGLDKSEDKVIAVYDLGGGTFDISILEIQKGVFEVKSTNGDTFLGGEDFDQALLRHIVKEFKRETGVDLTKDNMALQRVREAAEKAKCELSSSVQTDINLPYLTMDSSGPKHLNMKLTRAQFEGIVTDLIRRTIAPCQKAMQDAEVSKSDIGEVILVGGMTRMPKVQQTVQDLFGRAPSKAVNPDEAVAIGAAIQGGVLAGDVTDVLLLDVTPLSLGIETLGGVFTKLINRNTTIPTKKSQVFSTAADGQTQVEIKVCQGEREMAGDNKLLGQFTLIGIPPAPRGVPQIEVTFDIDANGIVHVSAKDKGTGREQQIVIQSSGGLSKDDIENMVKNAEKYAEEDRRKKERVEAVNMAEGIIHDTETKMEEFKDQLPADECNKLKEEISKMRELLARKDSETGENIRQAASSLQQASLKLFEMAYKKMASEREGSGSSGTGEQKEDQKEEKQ

Binder | Kd (Mortalin peptide #56) [µM] | koff (Mortalin peptide #56) [s⁻¹] | Kd (Mortalin peptide #62) [nM] | koff (Mortalin peptide #62) [s⁻¹] | koff [1] [s⁻¹] | koff [2] [s⁻¹] | Kd [3] [µM] | Kd [4] [µM]
B1 | 76.9 | 0.0285 | 1900 | 0.0037 | 0.0226 | 0.000901 |  | 
VGFPV [SMRwt peptide] |  |  |  |  | 0.0152 | 0.0566 | 22.6 | 8.8

Source: publication PMC12469269 (2025)
